Results from patent US20150166606A1 (RA PHARMACEUTICALS, published 2015).
Numbered stars: 1 amine (or outer) side, 2 acyl side, 3 side chain; on linkers, the order of the positions; unused ones are H or OH. Bridge positions count the residues as written; N and C are the ends. Square brackets hold non-standard residues; d marks the D form. Ends that are not written are not given here. * marks the point of attachment. mXylyl = xylyl linker from dibromoxylene joining the two cysteines; Trp(7-aza) = N[C@@H](Cc1c[nH]c2ncccc12)C(=O)O; des‑NH2 = missing amino-terminal amine group; Gly(octyl) = CCCCCCCC[C@H](N)C(=O)O; Gly(cPent) = N[C@H](C(=O)O)C1CCCC1; pXylylene = c1cc(C[*:2])ccc1C[*:1]; Gly(cPr) = N[C@H](C(=O)O)C1CC1; dPhg = N[C@@H](C(=O)O)c1ccccc1; Chg = N[C@H](C(=O)O)C1CCCCC1; Phg = N[C@H](C(=O)O)c1ccccc1; Tle = CC(C)(C)[C@H](N)C(=O)O; Tranexamic = tranexamic acid; NMeV = CN[C@H](C(=O)O)C(C)C; oXylyl = ortho-xylyl linker; NMeC = CN[C@@H](CS)C(=O)O; NMeS = CN[C@@H](CO)C(=O)O; azaTrp = not defined here; Heptanoyl = CCCCCCC(=O)*; Ac5c = NC1(C(=O)O)CCCC1; Nva = CCC[C@H](N)C(=O)O; Thp = NC1(C(=O)O)CCOCC1; Ac4c = NC1(C(=O)O)CCC1; Ac3c = NC1(C(=O)O)CC1; Aib = CC(C)(N)C(=O)O; AEA = NCCOCC(=O)O; Mpa = O=C(O)CCS

B1: R2070 (peptide)
peptide: Ac-CAS[Phg]CR[Gly(cPr)]-NH2
modifications: linker 1-5 via mXylyl; not fully specified (residue 2); printed as [mXylyl(1,5)]Ac-C-a-S-Phg-CR-Cppg-NH2
B2: R2075 (peptide)
peptide: {des‑NH2}-CAA[Phg]CR[Tle]-NH2
modifications: linker 1-5 via mXylyl; not fully specified (residue 1); printed as [mXylyl(1,5)](des-NH2)C-AA-Phg-CR-Tbg-NH2
B3: R2071 (peptide)
peptide: Ac-CAS[Phg]CR[Chg]-NH2
modifications: linker 1-5 via mXylyl; not fully specified (residue 2); printed as [mXylyl(1,5)]Ac-C-a-S-Phg-CR-Chg-NH2
B4: R2076 (peptide)
peptide: {des‑NH2}-CGA[Phg]CR[Tle]-NH2
modifications: linker 1-5 via mXylyl; not fully specified (residue 1); printed as [mXylyl(1,5)](des-NH2)C-GA-Phg-CR-Tbg-NH2
B5: R2069 (peptide)
peptide: Heptanoyl-CA[NMeS][dPhg]CR[Tle]-NH2
modifications: linker 1-5 via mXylyl; not fully specified (residue 2); printed as [mXylyl(1,5)]Heptanoyl-C-a-nMeS-(D)Phg-C-R-Tbg-NH2
B6: R2080 (peptide)
peptide: [Mpa][code a]S[Phg]C[azaTrp][Tle]-NH2
modifications: linker 1-5 via mXylyl; reading uncertain; also: printed as [mXylyl(1,5)](des-NH2)C-a-S-Phg-C-azaTrp-Tbg-NH2
B7: R2090 (peptide)
peptide: {des‑NH2}-C[Tranexamic][Phg]CR[Tle]-NH2
modifications: linker 1-4 via mXylyl (inferred); not fully specified; printed as [mXylyl(1,5)](des-NH2)C-Tranexamic-Phg-CR-Tbg-NH2
B8: R2083 (peptide)
peptide: {des‑NH2}-C[Phg]CR[Tle]-NH2
modifications: linker 1-3 via oXylyl; not fully specified (residue 1); printed as [oXylyl(1,5)](des-NH2)C-Phg-CR-Tbg-NH2
B9: R2084 (peptide)
peptide: {des‑NH2}-C[Phg]CR[Tle]-NH2
modifications: linker 1-3 via pXylylene; not fully specified (residue 1); printed as [pXylyl(1,5)](des-NH2)C-Phg-CR-Tbg-NH2
B10: R2072 (peptide)
peptide: {des‑NH2}-CAAICRV-NH2
modifications: linker 1-5 via mXylyl; not fully specified (residue 1); printed as [mXylyl(1,5)](des-NH2)C-AAICRV-NH2
B11: R2081 (peptide)
peptide: {des‑NH2}-C[Tranexamic][dPhg]CR[Tle]-NH2
modifications: linker 1-4 via mXylyl (inferred); not fully specified; printed as [mXylyl(1,5)](des-NH2)C-Tranexamic-(D)Phg-CR-Tbg-NH2
B12: R2073 (peptide)
peptide: {des‑NH2}-C[Gly(octyl)]S[Phg]CR[Tle]-NH2
modifications: linker 1-5 via mXylyl; not fully specified (residue 1); printed as [mXylyl(1,5)](des-NH2)C-OctG-S-Phg-CR-Tbg-NH2
B13: R2068 (peptide)
peptide: Heptanoyl-CA[NMeS][Phg]CR[Tle]-NH2
modifications: linker 1-5 via mXylyl; not fully specified (residue 2); printed as [mXylyl(1,5)]Heptanoyl-C-a-nMeS-Phg-C-R-Tbg-NH2

biological target: T1, Activated human plasma kallikrein (Enzyme Research Laboratories, HPKa 1303) (human, UniProt P03952 20-638); assay: cell-based or functional assay
T1 sequence (P03952 20-638 limits assumed): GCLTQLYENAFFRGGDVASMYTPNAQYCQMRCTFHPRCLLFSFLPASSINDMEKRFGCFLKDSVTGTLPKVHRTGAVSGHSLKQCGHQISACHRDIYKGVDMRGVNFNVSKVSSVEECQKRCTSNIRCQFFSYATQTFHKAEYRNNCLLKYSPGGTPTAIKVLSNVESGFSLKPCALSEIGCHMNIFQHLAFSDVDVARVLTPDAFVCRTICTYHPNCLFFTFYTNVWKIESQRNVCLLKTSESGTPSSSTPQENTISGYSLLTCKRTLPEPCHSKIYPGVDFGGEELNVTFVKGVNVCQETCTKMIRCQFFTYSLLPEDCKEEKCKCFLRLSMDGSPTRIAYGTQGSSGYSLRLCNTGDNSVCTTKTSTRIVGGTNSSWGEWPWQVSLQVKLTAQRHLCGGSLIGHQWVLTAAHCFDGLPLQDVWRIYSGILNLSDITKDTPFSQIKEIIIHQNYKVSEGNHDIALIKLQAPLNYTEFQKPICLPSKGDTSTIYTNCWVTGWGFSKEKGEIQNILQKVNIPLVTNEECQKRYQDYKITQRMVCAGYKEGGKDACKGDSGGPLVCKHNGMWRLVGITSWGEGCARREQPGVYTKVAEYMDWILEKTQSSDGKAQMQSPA

| Avg. IC50 [nM] | Binder |
| --- | --- |
| 1940 | {des‑NH2}-C[AEA][Phg]CR[Tle]-NH2 (linker 1-4 via mXylyl) [R2151] |
| 177 | {des‑NH2}-C[Ac5c]A[dPhg]CR[Tle]-NH2 (linker 1-5 via mXylyl) [R2149] |
| > 2190 | {des‑NH2}-C[Thp]A[Chg]C[Trp(7-aza)][Tle]-NH2 (linker 1-5 via mXylyl) [R2147] |
| > 8880 | {des‑NH2}-C[Aib]A[Chg]CR-OH (linker 1-5 via mXylyl) [R2153] |
| 28.8 | Heptanoyl-C[dA][NMeS][Chg]CR[Tle]-NH2 (linker 1-5 via mXylyl) [R2148] |
| > 7930 | XSICRV (not fully specified; [mXylyl(1,4)](2-SAc)-SICRV-NH2) [R2154] |
| 0.764 | {des‑NH2}-C[Ac5c]A[Phg]CR[Tle]-NH2 (linker 1-5 via mXylyl) [R2150] |
| 319 | {des‑NH2}-C[Aib]A[Chg]CR-{3,3‑dimethylbutan‑2‑amine} (linker 1-5 via mXylyl) [R2152] |

biological target: T1, Activated human plasma kallikrein …; assay: cell-based or functional assay; remark: another data set of the same source

| Avg. IC50 [nM] | Binder |
| --- | --- |
| 118 | B1 |
| 2.6 | B2 |
| 46.9 | {des‑NH2}-C[Thp]A[dPhg]CR[Tle]-NH2 (linker 1-5 via mXylyl) [R2094] |
| 1920 | B3 |
| 3.2 | {des‑NH2}-C[Aib]A[Chg]CR[Tle]-NH2 (linker 1-5 via mXylyl) [R2091] |
| 17.8 | [Mpa][code a]A[Phg]CR[Tle]-NH2 (linker 1-5 via mXylyl) [R2079] |
| 22.4 | {des‑NH2}-C[Aib]A[dPhg]CR[Tle]LRYSE-NH2 (linker 1-5 via mXylyl) [R2098] |
| 61.9 | MCEYICRV-NH2 (linker 2-6 via mXylyl) [R2089] |
| 11.4 | B4 |
| 0.1 | {des‑NH2}-C[Aib]A[Phg]CR[Tle]LRYSE-NH2 (linker 1-5 via mXylyl) [R2099] |
| 903 | B5 |
| 1.6 | {des‑NH2}-C[Thp]A[Phg]CR[Tle]-NH2 (linker 1-5 via mXylyl) [R2095] |
| 2 | {des‑NH2}-C[Ac4c]A[Phg]CR[Tle]-NH2 (linker 1-5 via mXylyl) [R2097] |
| 2.8 | {des‑NH2}-C[Aib]A[Phg]CR[Tle]-NH2 (linker 1-5 via mXylyl) [R2078] |
| 12700 | MCESI[NMeC]RV-NH2 (linker 2-6 via mXylyl) [R2101] |
| 13200 | B6 |
| 1750 | B7 |
| 1.5 | {des‑NH2}-C[Thp]A[Chg]CR[Tle]-NH2 (linker 1-5 via mXylyl) [R2100] |

| Avg. IC50 [nM] | Binder |
| --- | --- |
| 25.8 | [Mpa][code a]S[Chg]CR[Tle]-NH2 (linker 1-5 via mXylyl) [R2082] |
| > 8900 | B8 |
| 8930 | MCESICRELRYSE-NH2 (linker 2-6 via mXylyl) [R2086] |
| 1800 | B9 |
| 19.7 | MCES[Gly(cPent)]CRV-NH2 (linker 2-6 via mXylyl) [R2077] |
| 13 | B10 |
| 10.2 | Ac-MCESICRV-NH2 (linker 2-6 via mXylyl) [R2008] |
| > 16600 | MCESICRE-NH2 (linker 2-6 via mXylyl) [R2087] |
| > 10000 | B11 |
| 10.3 | {des‑NH2}-C[Ac3c]A[Phg]CR[Tle]-NH2 (linker 1-5 via mXylyl) [R2093] |
| 18.6 | B12 |
| 3960 | {des‑NH2}-C[Ac3c]A[dPhg]CR[Tle]-NH2 (linker 1-5 via mXylyl) [R2092] |
| 26.8 | B13 |
| 8.6 | [Nva]CESICRV-NH2 (linker 2-6 via mXylyl) [R2009] |
| 21.9 | CESICRV-NH2 (linker 1-5 via mXylyl) [R2085] |
| 748 | {des‑NH2}-C[Ac4c]A[dPhg]CR[Tle]-NH2 (linker 1-5 via mXylyl) [R2096] |
| 2040 | MCESNCRV-NH2 (linker 2-6 via mXylyl) [R2088] |
| 11600 | MCESICR[NMeV]-NH2 (linker 2-6 via mXylyl) [R2074] |
